Source: patent US6150168

Tests used:
[1] = molecular target: ASOR receptor (asialoglycoprotein receptor) on primary mouse hepatocytes (mouse) (UniProt P34927)
[2] = molecular target: ASOR receptor on HepG2 cells
[3] = molecular target: ASOR receptor (asialoglycoprotein receptor) on primary mouse hepatocytes (mouse) (UniProt P34927); conditions: scale: % conversion of phenylalanine to tyrosine
[4] = molecular target: ASOR receptor (asialoglycoprotein receptor) on primary mouse hepatocytes (mouse) (UniProt P34927); remark: listed apart in the source
[5] = molecular target: ASOR receptor (asialoglycoprotein receptor) on primary mouse hepatocytes (mouse) (UniProt P34927); remark: listed apart in the source
[6] = molecular target: adenovirus receptor on primary mouse hepatocytes (mouse)

asialoorosomucoid (ASOR) (ligand)
internalized ^3 H counts after a 2 hour incubation (dose-response of ^3 H-ASOR uptake) (molecules/cell) [1]: 320000
internalized ^3 H counts after a 2 hour incubation (dose-response of ^3 H-ASOR uptake) (molecules/cell) [2]: 150000

ASOR/poly-L-lysine conjugate (ASOR/PLL conjugate)
phenylalanine hydroxylase activity (percent conversion of phenylalanine to tyrosine) in PAH deficient mouse hepatocytes after delivery of CMV/hPAH DNA in complex form with adenovirus [3]: 26
percentage of cells expressing β-gal, ASOR-PLL/DNA complexes with free adenovirus, in the presence of a 1000-fold excess of free ASOR [4]: < 2 % of cells
percentage of cells staining blue, complex containing adenovirus conjugated with PLL at high EDC concentrations, in the presence of a 1000-fold excess of free ASOR [4]: < 30 % of cells
percentage of cells staining positive for beta-gal, complex containing adenovirus conjugated with PLL at low EDC concentrations, in the presence of a 1000-fold excess of free ASOR [4]: 80 % of cells
canine factor IX (cFIX) level in supernatants of primary mouse hepatocytes after delivery of pCMV/cFIX with the high EDC ADV-PLL/DNA complex (µg/10^6 cells/24 hours) [5]: 0.79

adenovirus (d1312) conjugated with PLL at low EDC concentrations
percentage of cells staining positive for beta-gal after delivery with the low EDC ADV-PLL/DNA complex, in the presence of a 1000-fold excess of free ASOR [6]: 80 % of cells
